B1: Pistol ribozyme (parent)
chain: GGGUCGUUGUUCCAUAAUCGCGUGGAUAUGGCACGCAAGUUUCUACCGGGCACCGUAAAUGUCCGACUGGAGCCGUUCGGGCGGCUAUAAACAGACCUCAGGCCCGAAGCGUGGCGGCACCUGCCGCCGGUGGUAAAAAAGAUCGGAAGAGCACACGUCU

Variants of: B1
Experiment: aptazyme ON/OFF ratio, guanine; higher = stronger switching; co-transcriptional cleavage with and without guanine

Variant	aptazyme ON/OFF ratio
U7G G9U U10C U11G C13U	1.38
U7G G9U U10C U11G C13A	1.32
U7G G9U U10C U11G C13G	1.22
U7G G9U U10A U11G	3.03
U7G G9U U10A U11A	3.18
U7G G9U U10A U11C	1.17
U7G G9U U10C U11C C12A	1.37
U7G G9U U10C U11C C12U	1.41
U7G G9U U10C U11C C12G	1.23
U7G G9U U10C C12U	1.51
U7G G9U U10C C12A	2.03
U7G G9U U10C C12G	1.37
U7G G9U U10A U11A C12G C13G	1.11
U7G G9U U10A U11A C12G C13A	1.13
U7G G9U U10A U11A C12G C13U	1.42
U7G G9U C12G C13A	1.16
U7G G9U C12G C13G	1.22
U7G G9U C12G C13U	1.36
U7G G9C U11A C13U	1.62
U7G G9C U11A C13G	1.19
U7G G9C U11A C13A	1.41
U7G G9U U10A C12U	1.54
U7G G9U U10A C12A	1.65
U7G G9U U10A C12G	1.59

Variant	aptazyme ON/OFF ratio
U7G G9U U10G U11G C12U	1.29
U7G G9U U10G U11G C12A	1.11
U7G G9U U10G U11G C12G	1.16
U7G G9U U10C C12U C13U	1.34
U7G G9U U10C C12U C13A	1.38
U7G G9U U10C C12U C13G	1.31
U7G G9U U10A U11G C12U C13A	1.23
U7G G9U U10A U11G C12U C13U	1.27
U7G G9U U10A U11G C12U C13G	1.12
U7G G9U U10C U11G C12A	1.13
U7G G9U U10C U11G C12U	1.49
U7G G9U U10C U11G C12G	1.25
U7G G9U U11A C12U C13A	1.25
U7G G9U U11A C12U C13U	1.07
U7G G9U U11A C12U C13G	1.27
U7G G9C U11C C13U	1.39
U7G G9C U11C C13G	1.06
U7G G9C U11C C13A	1.42
U7G G9U U10C U11G C12U C13U	1.22
U7G G9U U10C U11G C12U C13G	1.23
U7G G9U U10C U11G C12U C13A	1.22
U7G U8A	1.54
U7G G9U U11A	1.42
U7G G9U U11C	4.69

Variant	aptazyme ON/OFF ratio
U7G G9U U11G	2.13
U7G G9U U10C U11A	3.43
U7G G9U U10C U11G	2.9
U7G G9U U10C U11C	1.42
U7G G9U U10G U11C C12G C13A	1.16
U7G G9U U10G U11C C12G C13G	1.07
U7G G9U U10G U11C C12G C13U	1.36
U7G G9U U10G C12U C13U	1.25
U7G G9U U10G C12U C13G	1.34
U7G G9U U10G C12U C13A	1.28
U7G U8A G9A C12G	1.18
U7G U8A G9A C12A	1.06
U7G G9U U10G U11A C12U C13G	1.17
U7G G9U U10G U11A C12U C13U	1.23
U7G G9U U10G U11A C12U C13A	1.17
U7G G9U U11A C13G	1.13
U7G G9U U11A C13A	1.34
U7G G9U U11A C13U	1.27
U7G G9U U10G U11C C12A C13U	1.33
U7G G9U U10G U11C C12A C13A	1.14
U7G G9U U10G U11C C12A C13G	1.23
U7G G9U U11G C12A	1.82
U7G G9U U11G C12G	1.74
U7G G9U U11G C12U	1.2

Variant	aptazyme ON/OFF ratio
U7G G9U U10C U11C C12U C13U	1.29
U7G G9U U10C U11C C12U C13A	1.25
U7G G9U U10C U11C C12U C13G	1.23
U7G G9U U10C U11A C13U	1.36
U7G G9U U10C U11A C13G	1.16
U7G G9U U10C U11A C13A	1.34
U7G G9U U11G C12G C13G	1.21
U7G G9U U11G C12G C13A	1.19
U7G G9U U11G C12G C13U	1.29
U7G G9C U11C C12U C13A	1.37
U7G G9C U11C C12U C13U	1.25
U7G G9C U11C C12U C13G	1.27
U7G G9C U11G C13G	1.31
U7G G9C U11G C13U	1.17
U7G G9C U11G C13A	1.29
U7G G9U U11C C12U C13U	1.31
U7G G9U U11C C12U C13G	1.3
U7G G9U U11C C12U C13A	1.37
U7G G9U U10A U11C C12G C13A	1.22
U7G G9U U10A U11C C12G C13U	1.27
U7G G9U U10A U11C C12G C13G	1.04
U7G G9U U10A	3.84
U7G G9U U10G	3.04
U7G G9U U10C	3.94

Variant	aptazyme ON/OFF ratio
U7G G9U U11G C12A C13A	1.11
U7G G9U U11G C12A C13G	1.2
U7G G9U U11G C12A C13U	1.26
U7G U8A C13G	1.41
U7G U8A C13U	0.972
U7G U8A C13A	1.35
U7G G9U U10G U11A C12G C13A	1.19
U7G G9U U10G U11A C12G C13G	1.17
U7G G9U U10G U11A C12G C13U	1.18
U7G G9U U10A U11C C13A	1.35
U7G G9U U10A U11C C13U	1.18
U7G G9U U10A U11C C13G	1.12
U7G G9C U10G U11G C12U C13U	1.24
U7G G9C U10G U11G C12U C13G	1.1
U7G G9U U10A U11A C12U C13A	0.962
U7G G9U U10A U11A C12U C13U	1.28
U7G G9U U10A U11A C12U C13G	1.29
U7G G9C U11C	2.53
U7G G9C U11G	1.48
U7G G9C U11A	2.57
U7G G9U C12A C13A	1.46
U7G G9U C12A C13U	1.14
U7G G9U C12A C13G	1.33
U7G G9U U10G U11C	1.13

Variant	aptazyme ON/OFF ratio
U7G G9U U10G U11G	1.74
U7G G9U U10G U11A	1.23
U7G G9U C13U	1.45
U7G G9U C13G	1.2
U7G G9U C13A	1.38
U7G G9U U10G U11G C13G	1.18
U7G G9U U10G U11G C13A	1.22
U7G G9U U10G U11G C13U	1.3
U7G G9U U10G U11G C12G C13G	1.17
U7G G9U U10G U11G C12G C13A	1.1
U7G G9U U10G U11G C12G C13U	1.27
U7G G9U	2.19
U7G G9U U10A C13G	1.18
U7G G9U U10A C13U	1.35
U7G G9U U10A C13A	1.44
U7G U8A C12A C13U	1.23
U7G U8A C12A C13A	1.27
U7G U8A C12A C13G	1.14
U7G G9U U10G U11C C12A	1.62
U7G G9U U10G U11C C12G	1.48
U7G G9U U10G U11C C12U	1.17
U7G G9U U11C C12A C13G	1.28
U7G G9U U11C C12A C13U	1.41
U7G G9U U11C C12A C13A	1.42

Variant	aptazyme ON/OFF ratio
U7G G9U U10G C12G C13G	1.2
U7G G9U U10G C12G C13A	1.15
U7G G9U U10G C12G C13U	1.4
U7G G9C U11G C12G C13A	1.17
U7G G9C U11G C12G C13G	1.36
U7G G9C U11G C12G C13U	1.29
U7G G9U U10C U11A C12G	1.57
U7G G9U U10C U11A C12A	1.58
U7G G9U U10C U11A C12U	1.8
U7G U8A C12U C13U	1.42
U7G U8A C12U C13G	1.38
U7G U8A C12U C13A	1.43
U7G G9U U10A U11A C12A C13G	1.26
U7G G9U U10A U11A C12A C13U	1.38
U7G G9U U10A U11A C12A C13A	1.17
U7G G9U U10A U11C C12U	1.32
U7G G9U U10A U11C C12G	1.5
U7G G9U U10A U11C C12A	1.56
U7G G9U U10C U11G C12A C13A	1.1
U7G G9U U10C U11G C12A C13G	1.13
U7G G9U U10C U11G C12A C13U	1.16
U7G G9C U11A C12A C13U	1.52
U7G G9C U11A C12A C13A	1.35

Source: the RNAGym collection of RNA variant scans (doi:10.1021/acssynbio.7b00057)
